Consider 19 sequences from the DeepSol protein solubility set.

This data set is described as follows: soluble on expression in E. coli; label from the status in PepcDB or PDB records.
Turning to “ELSGDDQGDEEEDDHAYEGVPNGGWHTSSLSLSLPSTIAAPHPMDGPPGGSTPVTPVIKAGWLDKNPPQGSYIYQKRWVRLDTDHLRYFDSNKDAYSKRFISVACISHVAAIGDQKFEVITNNRTFAFRAESDVERKEWMQALQQAMAEQRARARLSSAYLLGVPGSEQPDRAGSLELRGFKNKLYVAVVGDKVQLYKNLEEYHLGIGITFIDMSVGNVKEVDRRSFDLTTPYRIFSFSADSELEKEQWLEAMQGAIAEALSTSEVAERIWAAAPNRFCADCGAPQPDWASINLCVVICKRCAGEHRGLGAGVSKVRSLKMDRKVWTETLIELFLQLGNGAGNRFWAANVPPSEALQPSSSPSTRRCHLEAKYREGKYRRYHPLFGNQEELDKALCAAVTTTDLAETQALLGCGAGINCFSGDPEAPTPLALAEQAGQTLQMEFLRNNRTTEVPRLDSMKPLEKHYSVVLPTVSHSGFLYKTASAGKLLQDRRAREEFSRRWCVLGDGVLSYFENERAVTPNGEIRASEIVCLAVPPPDTHGFEHTFEVYTEGERLYLFGLESAEQAHEWVKCIAKAFVPPLAEDLLARDFERLGRLPYKAGLSLQRAQEGWFSLSGSELRAVFPEGPCEEPLQLRKLQELSIQGDSENQVLVLVERRRTLYIQGERRLDFMGWLGAIQKAAASMGDTLSEQQLGDSDIPVIVYRCVDYITQCGLTSEGIYRKCGQTSKTQRLLESLRQDARSVHLKEGEQHVDDVSSALKRFLRDLPDGLFTRAQRLTWLEASEIEDEEEKVSRYRELLVRLPPVNRATVKALISHLYCVQCFSDTNQMNVHNLAIVFGPTLFQTDGQDYKAGRVVEDLINHYVVVFSVDEEELRKQREEITAIVKMRVAGTASGTQHAGDFICTVYLEEKKAETEQHIKVPASMTAEELTLEILDRRNVGIREKDYWTCFEVNEREEAERPLHFAEKVLPILHGLGTDSHLVVKKHQAMEAMLLYLASRVGDTKHGMMKFREDRSLLGLGLPSGGFHDRYFILNSSCLRLYKEVRSQRPWSGAPETSHRPEKEWPIKSLKVYLGVKKKLRPPTCWGFTVVHETEKHEKQQWYLCCDTQMELREWFATFLFVQHDGLVWPSEPSRVSRAVPEVRLGSVSLIPLRGSENEMRRSVAAFTADPLSLLRNV”, the “soluble on expression in E. coli” value was “soluble”. Take “MLDLTTNPIDLTRALVDIESPSHYEKNIADAIEQALHAIDNVEVLRHGNTLVARTHRGLGERVILAGHIDTVPIADNVPSHMEGDVMFGCGTVDMKSGMAVYLHAFATLANHPALAKDLTVVCYEGEEVASEYNGLGHVQAAHPDWLSGDLALLGEPSGAVIEAGCQGTIRLRVTAHGVRAHSARSWLGDNAMHKLAPVITNIAQYHAQEMLVDGCLYHEGLNIVHCESGVATNTIPDEAWMFVNFRFAPNRSVDEALAHMLEVLDLPEGVTYDIDDAVPGARPGLDRPAAAALLEATGGKFRAKYGWTDVSRFSEIGVPAVNFGPGDPAYCHKKDEQCPVSMITEVSRTLVHYLTSTNSQTTGA”: the “soluble on expression in E. coli” value was “not soluble”.

Take “MASGTASMQRPSIEKEPYYHGFLPREDVKTVLKNNGDFVIRISEPQAGSPRSNILSVMHCVPPMEEEIKHYVIKTKGDKIFIEKVSFLSIPEMVEWHLTKKESVQKDVFLIKAISRQAWELDHDNIEPLKKLGEGAFGEVMMGTMKFRKGGKSVQVAIKQAKLSNLTKEQIKEFMGEARVMRSLSHPHVVRFYGVPRRRVNVALCRSLNEFLAKCHRKLRCATPFFVCMSVNWLSVLNELRVFLE”: the “soluble on expression in E. coli” value is “not soluble”. The value for “MAHHHHHHMISYSGVLYTSDLMAQLMEMVKYSTHASSRDSDAQRLLRYAVRGSSAAQDDLYRSLWLKVEMVADSRVLGRYIGAREPWSPIRVCFDERGLFKSYPPLVHASAKKTSAIEADATSGSGSTTMEEEQRQQSERQGMSTEITSHTSEGGEEMVEGVRGAVVAEASEASGVKDVALQEASHGEQRTVEALDLRWDDIHRLIERTRALTSPPTERHPQQEKMEIFTGIAVYLRTIATGRRYCSGEEEAGGEYPAESRERALFAVGYELDVWARLFELVQEVRHDMEKFITDNAAHHVEPEFECWEALLITLRCILDFCVVRTQEKGKEERAAVEELFEKTMKLRNELVEESRTRFGGRMRILWLQEA” was “not soluble”; that for “MLSSQAYDIAIVGGGMVGLATAIGLAQADLNVVVIDAGHTEAVSGEPRLRVSAINKASQRLLEHLGAWHYVDASRATPYQKMAVWDKDGFGKIAFDASSISEPSLGAIIENDAISYALAKRASEFDNITHIENQRLERIAFGEREAWLTLANSADAEIESVSAALVIAADGANSWVREQCKIPLTFWDYGHHAIVATIRSEMPHLATARQVFLQDGPLAFLPLYEDNLCSIVWSVPPERATELLAMDKVQFERNLTAAFDGRLGICKLESERQAFPLRMRYARHFARHRLVLAGDAAHTIHPLAGQGVNLGFLDAASIIEVISELQQAGKDIGDYAELRALERWRKADAMEMIAAMEGFKRLFEGSNPVKKAIRDLGLNLVDNVAGLKTVFMQQAMGNKSSLPKLCRLEHHHHHH” was “soluble”; that for “MSASETRSKVLTDESTGSTAIEESPRNRQNEEPEQTSQTENLQTDPFNARISEIFEKQTVAFERQMMIKEEEFMSQMKEREEVKLKDLETKLENFEKWRKEIRLEGAKELNIKLHSEPEVSAELEHEGGLQEK” was “not soluble”. The value for GSLHRVPLRRHPSLKKKLRARSQLSEFWKSHNLDM was “soluble”; that for “MSLNNQANKLRNLMSQNGTKKSQNTHFIAITSGKGGVGKSTISANLANVLANNGYKVGLFDADIGLANLDVILNVRIQKNLLHVLRGECSLEDILIEVKPNLWLIPGESGDEILKYNDKNIYERFLNQASILDELDFLIIDTGAGIGGNILNFLEMADEVIVVTVPDPAAITDAYATIKTTSKTKENLLMLFNVVKNENEALKVFENIKKVADANIKNPLNLEFLGHLSASKDVSGSIKKRTLFSDENTASSDEIKALASKLLYRLERKVLDNVSNRSFSSFFRKIIEREGHHHHHH” was “soluble”; that for “MKPYQRQFIEFALNKQVLKFGEFTLKSGRKSPYFFNAGLFNTGRDLALLGRFYAEALVDSGIEFDLLFGPAYKGIPIATTTAVALAEHHDKDLPYCFNRKEAKDHGEGGSLVGSALQGRVMLVDDVITAGTAIRESMEIIQAHGATLAGVLISLDRQERGRGEISAIQEVERDYGCKVISIITLKDLIAYLEEKPDMAEHLAAVRAYREEFGV” was “soluble”.

Regarding “MSLCEDMLLCNYRKCRIKLSGYAWVTACSHIFCDQHGSGEFSRSPAICPACNSTLSGKLDIVRTELSPSEEYKAMVLAGLRPEIVLDISSRALAFWTYQVHQERLYQEYNFSKAEGHLKQMEKIYTQQIQSKDVELTSMKGEVTSMKKVLEEYKKKFSDISEKLMERNRQYQKLQGLYDSLRLRNITIANHEGTLEPSMIAQSGVLGFPLGNNSKFPLDNTPVRNRGDGDGDFQFRPFFAGSPTAPEPSNSFFSFVSPSRELEQQQVSSRAFKVKRI”, the “soluble on expression in E. coli” value was “soluble”. With “YASRDMDIKRLGKAVMAAAGSPGHFPDVAIPGGVRALPDPQALAELRLPENYEESFEPVPYDGFDMMLTSHGTLDPLGDHVTARSGEERITFDLQTWADHVAESRPGDPAPRPLVHGHPYRVGPYAHGEAMVPRSLAEIRRIIADPRLCEGEFRKESSILSGIGVGAVEGPRGLLVHRYVANEDGVLVDCQILTPTAQNEAWLASMLEASLQQDSDRGVELSVENSIRTANPCLPCSSAPEGHMGVVIEKGN”, the “soluble on expression in E. coli” value is on record as “not soluble”.

“MKAEIISVGTEILLGDIVNTNSQFLAKELASLGIEVYHQSTVGDNKQRLLECFDESLKRSDFVITTGGLGPTGDDMTKETAAEYFGQKLELHKPSLEVLESFFVKTGKKMAENNMKQVYFPKDAIVLKNNNGTAPGAILKKDGKFIIVLPGPPREMKAMFNESVKPYLQQFTNEMLVSKTLRLYGIGESNLELEILDIINEQTNPTVALYAKELEVTIRITAKAENEREAFKLIKPVEEKIKSRVGKYVYTEGDISISEGETALEDAVSKLLVEKNLTIAVAESCTGGLVSSSLINYPGISSVFLEGCVTYSNDSKMKRLGVKRETLEEFGAVSEQTAIEMAEGVAKGLKANIGISTTGVAGPGGGTKEKPVGLVYTAIYINGKTIVKKNIFNGDRRKIRLRATRDLLNELRIQLEKL”: the “soluble on expression in E. coli” value is on record as “not soluble”. Regarding “MSLRDLPGQTGVQFTTGGVNHFLSWKSGGERHYFTSLAFTHTNRNRTCWLYGLDYQIKEYTYENKAIPKAQFTGELGYFIPVLSDKGRNVCFRIGLSVLGGFETVNWGTSLLPDGAAVTNGDCFIYGGGLTAAFDVWLTDRIILLMQVKERAFFGTDAGNFHTQIGLGVRLIINEGHHHHHH”, the “soluble on expression in E. coli” value is recorded as “not soluble”. For “MNQIDTGLVKRLIREQFPEWAHLEVKPVKFSGHDNRTFQLGDKMSVRLPSDAAYTPQVEKENKWLPILSKELSLPISTPIAKGNPSEAYPWPWSINKWIEGETVTKQNVRDLSEFAAHLGSFLVELQSIDASKGPIAGAHNFYRGGLISVYDEEARDAIENNKDVFDETVLKHLWDLALQSTWRRKPVWIHGDVAPGNLLVKDGKLCAVIDFGILGVGDPACDAAMSWTFFDKSSRKIFKEVLQIDEETWNRARGWALWKALITYDANKISNKIVAEESYRVIQVIVNDYGR”, the “soluble on expression in E. coli” value is recorded as “not soluble”.

In the case of “MRHTLPIAPQFYVTAPQSCPYLEGRLERKLFTALQGEHAQKLNDTLSKQGFRRSQNVLYRPSCAECSACLSARIRVADFEPTRTQRRVMKRNADLRRNATSPWATEDQYALFRRYLDDRHADGGMADMDIFEFAAMIEETPIRSRVIEYSRPGDTPSNRPLSAVCLTDIFDDGLSMVYSFYDPDLAGRSLGAYVILDHIEIAREAGLPYVYLGYWVPGSRKMGYKATYSALEIYKGGRWQAIGQPSDHRAELHPLSVDPIAEQVARISLPEARSGDRSRDLEHHHHHH”, the “soluble on expression in E. coli” value is listed as “not soluble”. The result for “MRGRWPYEEKPLIVFWESTKACLLACKHCRAEALTEPQPGELSTREALALVDQVVEFGRPYPILVITGGDPLMRRDFWRILEYAVSQGLRVAVAPSVTPLLTREVVRRMARMGVARISISIDSGLPEVHDAIRGVPGTFKASVNIVREALAAGLPVQINTTVMKPTVDSLPETLKLLLDLGVDVWEVFYVVPTGRAARILDLTPSEWEDVSNYLYDASRYGVLVRTVEGPMFRRIALTRRLLENMGLDWRNR” reads “not soluble”; that for “MKRIADEELVREERAEESTQKWLQDAKFQEILGADSSHKSLFVLLSHPDGSQGILLANKSPFSEEKSDIEKLLATAQLQEISRNDIFGSYNIEIDPKLNLLKSQLIYPINDRLIAKYRQEEKFVIRETPELYETVTRPYIEKYQLNLNWVYNCLEKRSEVDKIVFEDPDNENGFVLLQDIKWDGKTLENLYVLAICHRHGLKSVRDLTGDDLEMLYNMRDKSLEAINQKYGLKTDQIKCYFHYQPSFYHLHVHFINLKYDAPASTTMSAILLDDVINNLELNPEHYKKSTLTFTRKNGDKLMEMFREALKN”, “not soluble”; that for “MEERNEQVVEEVKEAQVEEAVTPENSEETVEEKSEAALLQEKVDELQAKLTETEGRTLRLQADFENYKRRVQMDKQAAEKYRAQSLVSDILPALDNFERAMQVEATDEQTKSLLQGMEMVHRQLLEALNKEGVEVIEAVGKQFDPNEHQAIMQVEDSEFESNAVVEEFQKGYKLKDRVIRPSMVKVNQ”, “not soluble”. “MSKPEFIARQGRKPTGWLGHIVARVMARETRPENDRALSFLDLADGDSLIDIGCGHGETLFQADRIVRLSGSVGVDFSEVMLKRARARNRDAVWDTRMAFHCADTAALPFPDKRFGKALSVHTIYFWPNPAAHLAEAFRVLRRGGRFLFCYRSTADRRAVEEFPDTVYRFPSVQEVEEKLKLVGFLGPETTTEDIKGRLTHWSIAEKPLEHHHHHH”: the “soluble on expression in E. coli” value is “soluble”.
